Experimental data published in patent US20090299035A1.
One block for each binder: values may come before it.

Tests used:
[1] = target: Human IgG (Sigma-Aldrich Corporation) (human); test: Biacore SPR; protein on NTA chip, human IgG injected
[2] = target: Human IgG (Sigma-Aldrich Corporation) (human); test: Biacore SPR; protein on NTA chip, human IgG injected; reference repeated from Table 2
[3] = target: Human IgG (Sigma-Aldrich Corporation) (human); test: human IgG captured on the protein-immobilized Amino-Cellulofine carrier, released with 0.1 M acetic acid, A280
[4] = target: Human IgG (Sigma-Aldrich Corporation) (human); test: Biacore SPR; protein on NTA chip, human IgG injected; reference repeated from Table 3

Kd [1]: 0.384 nM | koff [1]: 0.000154 s⁻¹ | kon [1]: 401000 M⁻¹ s⁻¹ | Kd [2]: 0.384 nM | koff [2]: 0.000154 s⁻¹ | kon [2]: 401000 M⁻¹ s⁻¹
B1: pPG (SEQ ID NO: 2) (designed binder)
chain: AYRLILNGRTLRGETTTEAVDAATAERVFRQYANDNGVDGEWTYDDATRTFTVTERPEVIDASELTPAVTGGGGCADDDDDDHHHHHH

Kd [1]: 0.788 nM | koff [1]: 0.000237 s⁻¹ | kon [1]: 301000 M⁻¹ s⁻¹
B2: Protein expressed from pLL3T (SEQ ID NO: 26 repeated three times, n = 3) (designed binder)
chain: ATIRANLIYADGRTQTAEFRGTFEEATAEAYRYADLLARENGRYTVDVADRGYTLNIRFAPGATIRANLIYADGRTQTAEFRGTFEEATAEAYRYADLLARENGRYTVDVADRGYTLNIRFAPGATIRANLIYADGRTQTAEFRGTFEEATAEAYRYADLLARENGRYTVDVADRGYTLNIRFAPGGGGGCADDDDDDHHHHHH

Kd [1]: 0.068 nM | koff [1]: 7.63e-05 s⁻¹ | kon [1]: 1.12e+06 M⁻¹ s⁻¹
B3: Protein expressed from pGG3T (SEQ ID NO: 25 repeated three times, n = 3) (designed binder)
chain: AYRLILNGRTLRGETTTEAVDAATAERVFRQYANDNGVDGEWTYDDATRTFTVTERPEVIDASELTPAVTPGAYRLILNGRTLRGETTTEAVDAATAERVFRQYANDNGVDGEWTYDDATRTFTVTERPEVIDASELTPAVTPGAYRLILNGRTLRGETTTEAVDAATAERVFRQYANDNGVDGEWTYDDATRTFTVTERPEVIDASELTPAVTPGGGGGCADDDDDDHHHHHH

Amount of bound human IgG (mg/ml carrier) [3]: 3
B4: Immobilization carrier SEQ ID NO: 6 (←SEQ ID NO: 3) (designed binder)
chain: ATIRANLIYADGRTQTAEFRGTFEEATAEAYRYADLLARENGRYTVDVADRGYTLNIRFAGGGGG
modifications: carboxy terminus bound to a primary amino group on Amino-Cellulofine via an amide bond

Amount of bound human IgG (mg/ml carrier) [3]: 10
B5: Immobilization carrier SEQ ID NO: 5 (←SEQ ID NO: 2) (designed binder)
chain: AYRLILNGRTLRGETTTEAVDAATAERVFRQYANDNGVDGEWTYDDATRTFTVTERPEVIDASELTPAVTGGGG
modifications: carboxy terminus bound to a primary amino group on Amino-Cellulofine via an amide bond

Kd [4]: 2.06 nM | koff [4]: 0.000312 s⁻¹ | kon [4]: 151000 M⁻¹ s⁻¹ | Kd [1]: 2.06 nM | koff [1]: 0.000312 s⁻¹ | kon [1]: 151000 M⁻¹ s⁻¹
B6: pPL (SEQ ID NO: 3) (designed binder)
chain: ATIRANLIYADGRTQTAEFRGTFEEATAEAYRYADLLARENGRYTVDVADRGYTLNIRFAGGGGGCADDDDDDHHHHHH
